Reference: patent US8242083B2, “Kinase substrates” (PerkinElmer Health Sciences, Inc., priority 2008, dated 2012)

Legend:
Format in all cases: biochemical
EphA3 = molecular target: T1, EphA3 (Homo sapiens, UniProt P29320); experiment: TR-FRET kinase assay, EphA3; details: Kinase Concentration 0.5 nM; 50 nM ULight-labeled substrate, 200 micromolar ATP, 2 hours
T1 sequence (P29320 21-983): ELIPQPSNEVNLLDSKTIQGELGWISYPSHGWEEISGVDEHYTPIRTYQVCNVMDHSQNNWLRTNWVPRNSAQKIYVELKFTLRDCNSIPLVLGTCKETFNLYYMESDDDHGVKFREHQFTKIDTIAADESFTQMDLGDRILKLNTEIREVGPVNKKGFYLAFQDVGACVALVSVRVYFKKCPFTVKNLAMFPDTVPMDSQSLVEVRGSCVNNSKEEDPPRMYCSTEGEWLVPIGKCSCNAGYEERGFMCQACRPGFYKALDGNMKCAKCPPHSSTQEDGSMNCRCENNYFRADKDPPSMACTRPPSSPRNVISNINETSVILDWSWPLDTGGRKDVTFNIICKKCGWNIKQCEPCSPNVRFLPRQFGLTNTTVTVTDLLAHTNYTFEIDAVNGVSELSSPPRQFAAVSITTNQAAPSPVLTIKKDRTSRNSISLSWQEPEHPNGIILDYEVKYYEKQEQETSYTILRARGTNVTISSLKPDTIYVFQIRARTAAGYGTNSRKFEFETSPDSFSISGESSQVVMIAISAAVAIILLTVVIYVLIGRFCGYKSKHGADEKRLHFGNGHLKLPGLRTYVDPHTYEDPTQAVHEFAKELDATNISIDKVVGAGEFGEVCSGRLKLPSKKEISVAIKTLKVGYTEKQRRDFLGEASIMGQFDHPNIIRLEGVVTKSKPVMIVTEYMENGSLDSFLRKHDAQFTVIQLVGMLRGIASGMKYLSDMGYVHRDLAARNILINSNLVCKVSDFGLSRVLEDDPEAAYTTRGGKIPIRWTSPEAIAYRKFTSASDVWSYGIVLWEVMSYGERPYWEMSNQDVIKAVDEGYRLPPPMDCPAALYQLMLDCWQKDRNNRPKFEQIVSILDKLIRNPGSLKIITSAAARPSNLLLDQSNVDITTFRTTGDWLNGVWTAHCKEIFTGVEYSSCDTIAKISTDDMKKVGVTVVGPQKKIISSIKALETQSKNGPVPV
Method: (§1) TR-FRET kinase assays are performed under standardized conditions: various individual kinases are incubated with 50 nM of kinase substrate BRB1 labeled with the TR-FRET acceptor dye ULight (PerkinElmer) and 200 micromolar ATP in 10 μL of kinase assay buffer (50 mM HEPES pH7.5, 10 mM MgCl2, 3 mM MnCl2, 1 mM EGTA, 2 mM DTT and 0.01% Tween-20) for 2 hours at room temperature. Reactions are stopped with EDTA, and anti-phospho-tyrosine antibodies (clone PT66) labeled with the TR-FRET europium chelate donor dye are added to a final concentration of 2 nM in a final volume of 20 μL. The TR-FRET signal emitted at 665 nm is read one hour after the addition of antibodies using a TR-FRET plate reader such as the Envision® Multilabel Plate reader (PerkinElmer). The emitted signal at 665 nm is proportional to the extent of peptide phosphorylation, Control reactions indicative of background are performed excluding ATP from the reaction.
(§2) Assay conditions are identical to those used described for FIG. 1.

TEC = molecular target: T2, TEC (Homo sapiens, UniProt P42680); experiment: TR-FRET kinase assay, TEC; details: Kinase Concentration 0.5 nM; 50 nM ULight-labeled substrate, 200 micromolar ATP, 2 hours
T2 sequence (P42680 1-631): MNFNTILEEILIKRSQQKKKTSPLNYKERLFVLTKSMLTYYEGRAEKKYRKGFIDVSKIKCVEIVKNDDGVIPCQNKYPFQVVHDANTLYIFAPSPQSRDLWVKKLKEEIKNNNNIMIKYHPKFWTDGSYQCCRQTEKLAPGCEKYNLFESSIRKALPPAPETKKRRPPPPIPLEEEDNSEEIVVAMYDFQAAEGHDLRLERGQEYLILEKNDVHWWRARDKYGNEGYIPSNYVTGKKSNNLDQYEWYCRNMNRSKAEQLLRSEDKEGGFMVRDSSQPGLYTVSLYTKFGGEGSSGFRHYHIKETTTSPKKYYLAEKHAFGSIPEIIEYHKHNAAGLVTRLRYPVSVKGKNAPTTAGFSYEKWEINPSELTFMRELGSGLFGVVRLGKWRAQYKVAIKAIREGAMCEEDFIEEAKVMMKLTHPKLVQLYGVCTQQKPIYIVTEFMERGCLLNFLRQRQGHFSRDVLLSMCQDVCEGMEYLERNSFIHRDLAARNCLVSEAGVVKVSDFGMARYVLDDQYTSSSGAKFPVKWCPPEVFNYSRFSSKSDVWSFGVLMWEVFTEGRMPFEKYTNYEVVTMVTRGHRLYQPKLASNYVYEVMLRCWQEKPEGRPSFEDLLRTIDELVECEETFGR
Method: as §1, §2

MER = molecular target: T3, MER (Homo sapiens, UniProt Q12866); experiment: TR-FRET kinase assay, MER; details: Kinase Concentration 0.25 nM; 50 nM ULight-labeled substrate, 200 micromolar ATP, 2 hours
T3 sequence (Q12866 21-999): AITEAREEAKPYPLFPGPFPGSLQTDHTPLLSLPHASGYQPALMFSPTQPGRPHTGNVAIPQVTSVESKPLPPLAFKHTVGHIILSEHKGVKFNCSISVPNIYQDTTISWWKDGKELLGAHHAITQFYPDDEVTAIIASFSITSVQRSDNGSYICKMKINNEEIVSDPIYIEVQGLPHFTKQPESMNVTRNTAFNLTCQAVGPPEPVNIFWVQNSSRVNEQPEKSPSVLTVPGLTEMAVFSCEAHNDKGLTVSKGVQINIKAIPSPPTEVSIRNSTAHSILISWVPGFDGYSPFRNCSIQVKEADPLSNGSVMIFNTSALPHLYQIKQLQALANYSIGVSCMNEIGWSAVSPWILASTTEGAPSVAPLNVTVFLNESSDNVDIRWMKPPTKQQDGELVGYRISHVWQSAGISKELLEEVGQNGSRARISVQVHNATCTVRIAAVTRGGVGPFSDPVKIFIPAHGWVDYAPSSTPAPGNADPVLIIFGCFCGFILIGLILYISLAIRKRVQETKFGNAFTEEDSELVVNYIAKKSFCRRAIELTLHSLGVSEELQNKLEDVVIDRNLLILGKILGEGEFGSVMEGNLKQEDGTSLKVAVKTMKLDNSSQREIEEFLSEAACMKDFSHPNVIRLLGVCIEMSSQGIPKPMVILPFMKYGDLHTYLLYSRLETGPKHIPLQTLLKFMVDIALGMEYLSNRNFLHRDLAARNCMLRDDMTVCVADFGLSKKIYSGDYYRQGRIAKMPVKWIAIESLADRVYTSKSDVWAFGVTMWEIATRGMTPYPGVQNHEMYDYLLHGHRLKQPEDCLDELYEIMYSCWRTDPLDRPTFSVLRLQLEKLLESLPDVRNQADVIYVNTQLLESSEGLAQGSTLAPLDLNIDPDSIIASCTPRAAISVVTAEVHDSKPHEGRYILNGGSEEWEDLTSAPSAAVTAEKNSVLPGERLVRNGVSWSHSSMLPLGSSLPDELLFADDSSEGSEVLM
Method: as §1, §2

For “C AYE AYE AYE K EYA EYA EYA K AYA EYE R (CAYEAYEAYEKEYAEYAEYAKAYAEYER; tyrosine kinase substrate peptide) [BRB1]”, the “Signal to Noise ratio with BRB1 Peptide” value (EphA3) was 22.4, the “Signal to Noise ratio with BRB1 Peptide” value (TEC) was 18.6 and the “Signal to Noise ratio with BRB1 Peptide” value (MER) was 12.9.
